Measured values: paper PMC7477951 (Structure (London, England : 1993), 2019)

B1: CD160 part of the single-chain human CD160-HVEM (sc_CD160:HVEM) (domain or fragment)
chain: INITSSASQEGTRLNLICTVWHKKEEAEGFVVFLCKDRSGDCSPETSLKQLRLKRDPGIDGVGEISSQLMFTISQVTPLHSGTYQCCARSQKSGIRLQGHFFSILFTETGNYTVTGLK
modifications: glycosylated
B2: human HVEM (L39-C162) expressed in Drosophila S2 cells (receptor, UniProt Q92956 39-162, looked up)
chain: LPSCKEDEYPVGSECCPKCSPGYRVKEACGELTGTVCEPCPPGTYIAHLNGLSKCLQCQMCDPAMGLRASRNCSRTENAVCGCSPGHFCIVQDGDHCAACRAYATSSPGQRVQKGGTESQDTLC

Columns and labels:
[1] = biological target: human HVEM (L39-C162) expressed in Drosophila S2 cells (human) (UniProt Q92956); assay: SPR
[2] = biological target: T1, HVEM part of the single-chain human CD160-HVEM (sc_CD160:HVEM) (human, UniProt Q92956 39-143); assay: crystal structure
T1 sequence: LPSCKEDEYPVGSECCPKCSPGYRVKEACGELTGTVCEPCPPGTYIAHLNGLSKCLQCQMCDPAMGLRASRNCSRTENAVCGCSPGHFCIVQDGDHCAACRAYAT

[3] = biological target: human LIGHT (L83-V240) expressed in Drosophila S2 cells (human, UniProt O43557 83-240); assay: SEC
Chain of human LIGHT (L83-V240) expressed in Drosophila S2 cells (O43557 83-240): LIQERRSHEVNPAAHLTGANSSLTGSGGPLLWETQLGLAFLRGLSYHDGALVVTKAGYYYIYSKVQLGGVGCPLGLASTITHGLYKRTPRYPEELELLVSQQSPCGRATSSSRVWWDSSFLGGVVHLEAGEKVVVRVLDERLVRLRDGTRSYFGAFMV

| Molecule | Kd [1] [µM] | further results |
| --- | --- | --- |
| human CD160 ectodomain (I27-L158) expressed in Drosophila S2 cells (from UniProt O95971 27-158) (domain or fragment) | 6.7 |  |
| refolded human CD160 ectodomain (residues I27-K144) (from UniProt O95971 27-144) (domain or fragment) | 7.1 |  |
| B1 |  | stoichiometry N [2]: 1 |
| B2 |  | binding result [3]: binds |
